In EP2388325A1 (RLP AgroScience GmbH, dated 2011):

Columns and labels:
[1] = molecular target: MBP:HA-HC-Pro fusion protein (ZYMV HC-Pro fused to the C-terminus of maltose binding protein, HA-tag between … (zucchini yellow mosaic virus (ZYMV), UniProt P0AEX9 27-396 = MBP)); assay: cell-based or functional assay
[2] = molecular target: the molecule itself; assay: Western blot / Coomassie gel after Ni-NTA purification (self-association)

B1: Trx-cupin-protein-His-protein (A. thaliana cupin protein expressed from pET32a(+)) (other)
chain: MGCIGVVNVTSINPYLTRRSNKPYNSRRPSSMAAAIRAESTEKLGITIEKNPPESKLTQLGVRSWPKWGCPPSKFPWTYSAKETCYLLQGKVKVYPNGSDEGVEIEAGDFVVFPKGMSCTWDVSVAVDKHYQFE
notes: Expressed in BL21 (DE3) codon plus, purified by the His-tag; 34 kDa monomer; also called Tm-cupin-protein-His-protein; Trx-QP-His-protein; not shown: N-terminal pET32a(+) tags: thioredoxin (Trx-tag), 6 X His-tag, S-Tag, enterokinase site; C-terminal 6 X His-tag from pET32a(+)
In the case of B1, the “gelshift (EMSA): binding of 21 bp siRNA-double strands by MBP-HA-HC-Pro, signal intensities (Quantity One)” value [1] is reported as 3 fold and the binding result [2] is reported as “binds”.
